In patent US20130251703A1 (Novartis, published 2013):
Residue numbers refer to the chain shown, from its start.

B1: MOR12603 (antibody, human IgG1, kappa, V domains shown)
VH: QVQLVQSGAEVKKPGSSVKVSCKASGGTFSSYAISWVRQAPGQGLEWMGLIIPRYGKARYAQKFQGRVTITADESTSTAYMELSSLRSEDTAVYYCARNWPYYYMDFWGQGTLVTVSS
VL: DIVLTQSPATLSLSPGERATLSCRASQNIVFNLAWYQQKPGQAPRLLIYDASNRATGVPARFSGSGSGTDFTLTISSLEPEDFAVYYCQQTKNRPPTFGQGTKVEIKR
notes: Tested as IgG
B2: MOR12605 (antibody, human IgG1, kappa, V domains shown)
VH: B1 VH
VL: B1 VL with T91F, K92R, N93R, R94K, P95S, P96N
notes: Tested as IgG
B3: MOR12514 (antibody, human IgG1, lambda, V domains shown)
VH: QVQLVQSGAEVKKPGASVKVSCKASGYTFTSYDIHWVRQAPGQGLEWMGRIDPYSGNTNYAQKFQGRVTMTRDTSISTAYMELSRLRSEDTAVYYCARGSFYTRDSYFDVWGQGTLVTVSS
VL: DIALTQPASVSGSPGQSITISCTGTSSDVGTYNQVSWYQQHPGKAPKLMIYGVSKRPSGVSNRFSGSKSGNTASLTISGLQAEDEADYYCQVRDMSLFDVFGGGTKLTVLG
notes: Tested as IgG
B4: MOR13655 (antibody, human IgG1, lambda, V domains shown)
VH: B3 VH
VL: DIALTQPASVSGSPGQSITISCTGTSSDVGTYNQVSWYQQHPGKAPKLMIYGVSKRPSGVSNRFSGSKSGNTASLTISGLQAEDEADYYCSSATQKPDVTVFGGGTKLTVLG
notes: Tested as IgG
B5: MOR12516 (antibody, human IgG1, lambda, V domains shown)
VH: B3 VH
VL: B4 VL with S91Q, A93R, T94D, Q95T, K96Y, P97R, D98P, T100K
notes: Tested as IgG
B6: MOR12921 (antibody, human IgG1, lambda, V domains shown)
VH: B3 VH with S31G, D33Y, I34M, R50D, Y54H, T58A, N59V
VL: B3 VL with Q91S, V92S, M95L, S96I, L97G, F98H, D99Y
notes: Tested as IgG
B7: MOR12515 (antibody, human IgG1, lambda, V domains shown)
VH: B3 VH
VL: B3 VL with Q91Y, V92S, M95S, S96P, L97M, F98D, D99Q
notes: Tested as IgG
B8: MOR13654 (antibody, human IgG1, lambda, V domains shown)
VH: B3 VH
VL: B4 VL with S91Q, A93R, T94G, Q95E, K96Y, P97R, D98P, V99G, T100W
notes: Tested as IgG

biological target: T1, Hu HER3: CD33-[Human HER3, residues 20-640]-TAG (human, UniProt P21860 20-640); test: solution equilibrium titration (SET), IgG, ECL read-out
T1 construct: also called hu HER3-Tag; HER3-Tag; not shown: C-terminal TAG (e.g. FLAG TAG)

Binder	Kd
B1	2000 pM
B2	1800 pM
B3	970 pM
B4	66 pM
B5	1800 pM
B6	150 pM
B7	870 pM
B8	110 pM

biological target: T2, Mu HER3: CD33-[Murine HER3, residues 20-643]-TAG (mouse, UniProt Q61526 20-643); test: as above
T2 construct: also called mu HER3-Tag; not shown: C-terminal TAG (e.g. FLAG TAG)

Binder	Kd
B1	4100 pM
B2	2300 pM
B3	2400 pM
B5	3900 pM
B6	560 pM
B7	1500 pM

biological target: T3, Cyno HER3: CD33-[Cyno HER3, residues 20-643]-TAG (cynomolgus monkey, UniProt G7PIG5 20-643); test: as above
T3 construct: also called cy HER3-Tag; not shown: C-terminal TAG (e.g. FLAG TAG)

Binder	Kd
B1	6100 pM
B2	2900 pM
B3	1400 pM
B5	3600 pM
B6	600 pM
B7	720 pM

biological target: T4, Rat HER3: CD33-[Rat HER3, residues 20-643]-TAG (rat, UniProt Q62799 20-643); test: as above
T4 construct: also called ra HER3-Tag; not shown: C-terminal TAG (e.g. FLAG TAG)

Binder	Kd
B1	11000 pM
B2	9600 pM
B6	690 pM

biological target: T5, human HER3 endogenously expressed on human cancer cells (SK-Br-3, BT-474, MCF7) (human, UniProt P21860 20-1342); test: cell-based or functional assay

Binder	BT474 pHER3 % inhibition	BT474 pHER3 IC50	MCF7 pHER3 % inhibition	MCF7 pHER3 IC50	SK-Br-3 pHER3 % inhibition	SK-Br-3 pHER3 IC50
B1	70%	79 pM	77%	11 pM	74%	18 pM
B2	64%	1490 pM	89%	318 pM	73%	7 pM
B3	70%	707 pM	67%	435 pM	77%	223 pM
B4	61%	19 pM	80%	149 pM	69%	90 pM
B5	63%		62%	590 pM	74%	1870 pM
B6	65%	418 pM	79%	1230 pM	68%	252 pM
B7	71%	365 pM	71%	674 pM	76%	278 pM
B8	61%	195 pM	77%	331 pM	69%	182 pM

biological target: T5, human HER3 endogenously expressed on …; test: cell-based or functional assay; remark: another data set of the same source

Binder	BT-474 pAkt % inhibition	BT-474 pAkt IC50	SK-Br-3 pAkt % inhibition	SK-Br-3 pAkt IC50	MCF7 pAkt % inhibition	MCF7 pAkt IC50
B1	77%	137 pM	84%	17 pM		
B2	67%	173 pM	84%	140 pM	76%	533 pM
B4	50%		86%	62 pM	79%	251 pM
B8	58%	142 pM	92%	89 pM	72%	244 pM

biological target: T5, human HER3 endogenously expressed on …; test: cell-based or functional assay; remark: another data set of the same source

Binder	BT-474 proliferation % inhibition	BT-474 proliferation IC50	MCF7 proliferation % inhibition	MCF7 proliferation IC50	SK-Br-3 proliferation % inhibition	SK-Br-3 proliferation IC50
B1	37%	136 pM	44%	58 pM	36%	34 pM
B2			45%	28 pM	29%	0.01 pM
B3			29%	317 pM	36%	44 pM
B4	31%	141 pM	46%	86 pM	39%	74 pM
B5			34%	492 pM	34%	2080 pM
B6			31%	2310 pM	42%	432 pM
B7			26%	1090 pM	36%	278 pM
B8	27%	632 pM			34%	136 pM
